The values below come from patent US20170002061A1 (ALLIGATOR BIOSCIENCE, published 2017).

Residue numbers refer to the chain shown, from its start.

One assay concerns the target CD40 on B cells (UniProt P25942 21-277, limits assumed). Description: cell-based or functional assay.
Assay [1] addresses T1, Fc-fused CD40 (Ancell, #504-820) (human, UniProt P25942 21-193).
T1 construct: not shown: Fc part of a bought fusion protein
Description: ELISA, Fc-fused CD40 coated at 0.05 ug/ml, IgG in serial dilution, anti human Ig-Fc-HRP. The procedure: For the CD40 binding ELISA, high binding flat bottom LIA plates (Greiner #655074) were coated with Fc-fused CD40 (Ancell, #504-820) at 0.05 μg/ml, and milk powder were used at 3% for blocking and at 1% for dilution. The antibodies to be tested were added in serial dilutions starting at 2000 ng/ml and detection was carried out using HRP conjugated goat anti human Ig-Fc (Jackson ImmunoResearch, #109-035-098) and Super Signal Pico Chemiluminescent (ThermoScientific, #37069) was used as substrate.
(In an ELISA, binding on a coated surface is turned into a signal by an enzyme label.)

Assay [2] deals with T2, LTBRhfc (R&Dsystems, USA) (human, UniProt P36941 28-227, limits assumed).
T2 construct: Bought protein; also called Fc-fused LTBR (R&D Systems, #629-LR); not shown: Fc part ('hfc') of a bought fusion protein
T2 sequence (P36941 28-227 limits assumed): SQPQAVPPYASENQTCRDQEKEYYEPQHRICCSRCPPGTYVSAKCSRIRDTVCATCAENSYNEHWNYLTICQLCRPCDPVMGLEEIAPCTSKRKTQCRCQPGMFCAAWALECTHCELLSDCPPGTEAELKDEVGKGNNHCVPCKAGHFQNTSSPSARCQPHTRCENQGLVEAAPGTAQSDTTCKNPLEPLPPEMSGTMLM
As to the kind of experiment: SPR (Biacore 3000), LTBRhfc amine-coupled to CM5, IgG as analyte, 37 C, pH 7.3. The procedure:
The LTBR binding antibody clones were screened, selected and cloned into full IgG format as described above for CD40. Binding to LTBR for two selected anti-LTBR antibody clones was characterized by surface plasmon resonance (SPR). SPR analysis of LTBR antibodies was performed according to standard protocols. The LTBRhfc (R&Dsystems, USA) was immobilized to the BIAcore sensorchip, CM5, using conventional amine coupling. The anti-LTBR antibodies (serially diluted ⅓ from 1-0.012 nM) were analysed for binding in HBS-P (GE, BR-1003-68) at a flow rate of 30 μl/min at 37° C. and pH 7.3. The association was followed for 3 minutes and the dissociation for 10 minutes. Regeneration was performed twice using 50 mM NaOH for 30 seconds. The kinetic parameters and the affinity constants were calculated using BIAevaluation 4.1 software, and samples were run, using the Biacore 3000 instrument according to manufacturer's protocols.
For orientation: In SPR one partner is held on a chip, and binding of the other changes the refractive index at the surface.

Broadly, the EC50 is the concentration at which the effect is half-maximal. A word on the Kd: it is the free concentration of one partner at which half of the binding sites on the other are occupied at equilibrium, for simple one-to-one binding. In general, koff refers to the rate constant with which the complex falls apart. Read a high koff as fast dissociation. One may read the kon as the second-order rate constant of association.

Sequence of CD40 on B cells (P25942 21-277 limits assumed): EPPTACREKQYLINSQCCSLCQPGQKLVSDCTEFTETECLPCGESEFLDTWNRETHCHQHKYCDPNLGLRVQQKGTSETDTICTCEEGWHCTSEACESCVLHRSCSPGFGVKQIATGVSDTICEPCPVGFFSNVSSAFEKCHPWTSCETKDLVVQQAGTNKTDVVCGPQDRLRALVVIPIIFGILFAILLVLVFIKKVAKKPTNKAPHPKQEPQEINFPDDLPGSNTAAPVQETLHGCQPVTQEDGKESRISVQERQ
T1 sequence (P25942 21-193 limits assumed): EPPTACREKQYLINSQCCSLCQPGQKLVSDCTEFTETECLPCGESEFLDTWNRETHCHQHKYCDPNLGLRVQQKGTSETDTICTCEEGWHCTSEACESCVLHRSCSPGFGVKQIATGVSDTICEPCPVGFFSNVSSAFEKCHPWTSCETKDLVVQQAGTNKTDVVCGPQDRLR

B1: 1146/1147 (antibody, V domains shown)
VH: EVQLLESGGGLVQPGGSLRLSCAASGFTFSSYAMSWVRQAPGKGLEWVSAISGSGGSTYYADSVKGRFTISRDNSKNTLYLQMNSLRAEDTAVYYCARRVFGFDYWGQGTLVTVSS
VL: DIQMTQSPSSLSASVGDRVTITCRASQSISSYLNWYQQKPGKAPKLLIYAASSLQSGVPSRFSGSGSGTDFTLTISSLQPEDFATYYCQQYYYYPFTFGQGTKLEIK
notes: From library AL2
Regarding B1, the “EC50 B cell (ug/ml); B cell proliferation, ATP content by Cell-titer glow” value (from here on “EC50 B cell (ug/ml)”) in the assay with CD40 on B cells was 3.6 µg/mL. This molecule also had an EC50 in assay [1] of 0.58 µg/mL.

B2: LTBR-3 (antibody, V domains shown)
VH: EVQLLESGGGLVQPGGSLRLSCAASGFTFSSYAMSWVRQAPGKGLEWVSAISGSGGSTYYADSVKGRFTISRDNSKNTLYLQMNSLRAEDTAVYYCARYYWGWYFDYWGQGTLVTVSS
VL: B1 VL with Y91G, Y92W, Y93W, F96L
notes: From library AL1
Consider B2, for which, in assay [2], the Kd came to 0.734 nM, the koff was determined as 0.00158 s⁻¹ and the kon stood at 2.23e+06 M⁻¹ s⁻¹.

B3: 1107/1108 (antibody, V domains shown)
VH: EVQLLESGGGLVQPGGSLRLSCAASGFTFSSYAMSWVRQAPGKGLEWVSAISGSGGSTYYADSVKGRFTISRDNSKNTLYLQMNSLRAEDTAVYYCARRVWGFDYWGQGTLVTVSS
VL: B1 VL with Y92G, Y93V
notes: From library AL1
Regarding B3, the “EC50 B cell (ug/ml)” value with CD40 on B cells was found to be 0.7 µg/mL. This molecule had an EC50 in assay [1] of 0.034 µg/mL.

B4: 1148/1149 (antibody, V domains shown)
VH: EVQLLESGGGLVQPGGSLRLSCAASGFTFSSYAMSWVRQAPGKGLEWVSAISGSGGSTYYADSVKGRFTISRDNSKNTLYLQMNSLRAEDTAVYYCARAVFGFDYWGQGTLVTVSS
VL: B1 VL with Y91A, Y94F, F96H
notes: From library AL2
Take B4: the “EC50 B cell (ug/ml)” value with CD40 on B cells came to 2.3 µg/mL. This molecule also registered an EC50 in assay [1] of 2.2 µg/mL.

B5: B03 (antibody, V domains shown)
VH: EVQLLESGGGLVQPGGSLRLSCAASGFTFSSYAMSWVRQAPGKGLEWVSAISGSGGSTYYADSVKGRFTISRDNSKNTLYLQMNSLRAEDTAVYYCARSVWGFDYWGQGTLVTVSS
VL: DIQMTQSPSSLSASVGDRVTITCRASQSISSYLNWYQQKPGKAPKLLIYAASSLQSGVPSRFSGSGSGTDFTLTISSLQPEDFATYYCQQGYHVWLYTFGQGTKLEIK
For the molecule B5, the “EC50 B cell (ug/ml)” value with CD40 on B cells was 0.44 µg/mL.

B6: 1136/1137 (antibody, V domains shown)
VH: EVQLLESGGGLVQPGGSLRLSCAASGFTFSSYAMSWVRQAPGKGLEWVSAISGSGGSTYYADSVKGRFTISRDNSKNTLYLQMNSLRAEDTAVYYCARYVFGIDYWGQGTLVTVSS
VL: B5 VL with G91A, H93Y, V94A, W95G, Y97F
notes: From library AL2
Consider B6, for which the “EC50 B cell (ug/ml)” value in the assay with CD40 on B cells amounted to 1 µg/mL. This molecule yielded an EC50 in assay [1] of 1.4 µg/mL.
